In assay [1] the target is T1, recombinant mouse TfR (extracellular region of mouse transferrin receptor, N-terminal histidine tag) (mouse, UniProt Q62351 89-763).
T1 construct: also called r mouse TfR; mouse TfR-ECD (Histag); not shown: histidine tag at the N-terminus
Description: calculated from BLI KD values; reference is the KD of the same peptide for hTfR.

Assay [2] deals with T2, recombinant monkey TfR (extracellular region of cynomolgus monkey transferrin receptor, N-terminal histidine … (cynomolgus monkey (Macaca fascicularis), UniProt Q5RDH6 89-760 (Pongo abelii entry))).
T2 construct: also called r monkey TfR; monkey TfR-ECD (Histag); not shown: histidine tag at the N-terminus
T2 chain: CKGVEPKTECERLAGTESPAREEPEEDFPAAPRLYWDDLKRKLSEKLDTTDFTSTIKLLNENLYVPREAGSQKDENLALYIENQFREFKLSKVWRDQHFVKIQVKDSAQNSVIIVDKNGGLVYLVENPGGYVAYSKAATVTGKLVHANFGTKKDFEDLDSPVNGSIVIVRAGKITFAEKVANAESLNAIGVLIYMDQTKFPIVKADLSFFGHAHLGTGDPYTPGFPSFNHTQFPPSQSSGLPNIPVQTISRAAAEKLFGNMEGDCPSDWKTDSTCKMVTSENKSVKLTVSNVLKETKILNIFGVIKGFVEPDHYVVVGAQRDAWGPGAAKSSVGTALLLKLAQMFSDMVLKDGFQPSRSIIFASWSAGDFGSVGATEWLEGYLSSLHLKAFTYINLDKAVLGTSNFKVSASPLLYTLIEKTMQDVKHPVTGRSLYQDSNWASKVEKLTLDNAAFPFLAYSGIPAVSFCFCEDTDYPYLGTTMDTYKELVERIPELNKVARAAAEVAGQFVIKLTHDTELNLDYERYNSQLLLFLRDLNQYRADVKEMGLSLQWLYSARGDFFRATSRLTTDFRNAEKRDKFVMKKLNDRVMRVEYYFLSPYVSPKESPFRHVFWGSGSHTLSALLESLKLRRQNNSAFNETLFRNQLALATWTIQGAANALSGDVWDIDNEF
The assay is described as above.

Assay [3] deals with T1, recombinant mouse TfR (extracellular …). Description: BLI (OctetRED96), His-tagged TfR ECD on Ni-NTA biosensor, peptide in solution.
Assay [4] addresses T3, recombinant hTfR (extracellular region of human transferrin receptor, N-terminal histidine tag) (human, UniProt P02786 89-760).
T3 construct: also called rhTfR; human TfR; not shown: histidine tag at the N-terminus
Described as above.

In assay [5] the target is T2, recombinant monkey TfR (extracellular …). Described as above.
For assay [6] the target is unchanged. The description is as above.

Changes are numbered by the printed parent chain. Like-named read-outs stand apart in the source and are kept apart here.

T1 sequence (Q62351 89-763): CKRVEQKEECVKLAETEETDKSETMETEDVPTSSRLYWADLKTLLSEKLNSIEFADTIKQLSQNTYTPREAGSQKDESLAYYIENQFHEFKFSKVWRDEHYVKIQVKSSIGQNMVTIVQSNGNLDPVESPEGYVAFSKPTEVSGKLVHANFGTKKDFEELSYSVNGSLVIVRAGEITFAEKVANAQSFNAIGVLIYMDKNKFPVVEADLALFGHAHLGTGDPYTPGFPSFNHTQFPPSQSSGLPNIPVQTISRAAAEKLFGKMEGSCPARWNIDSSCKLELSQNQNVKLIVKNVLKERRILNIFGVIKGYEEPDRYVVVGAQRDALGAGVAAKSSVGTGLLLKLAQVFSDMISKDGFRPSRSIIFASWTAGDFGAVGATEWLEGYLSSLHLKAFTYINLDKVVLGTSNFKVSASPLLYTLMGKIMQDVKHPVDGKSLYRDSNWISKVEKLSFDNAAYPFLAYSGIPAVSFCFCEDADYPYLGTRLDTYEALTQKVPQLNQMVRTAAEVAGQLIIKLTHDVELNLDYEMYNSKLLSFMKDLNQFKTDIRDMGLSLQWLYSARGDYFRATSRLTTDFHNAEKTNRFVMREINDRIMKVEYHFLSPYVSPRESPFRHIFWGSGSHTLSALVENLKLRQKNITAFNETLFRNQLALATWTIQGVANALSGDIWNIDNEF

B1: hTfR affinity peptide 1 (VHH)
VHH: QVQLVESGGGLVQPGESLRLSCAASGSIFDIYVMRWYRQAPGKQREWVASIYDGGRSDYEAVVKGRFIISRDNAKNTGYLQMNSLKPEDTAVYFCNVLIYAGRNYWGQGTQVTVSS
notes: also called Clone 1; VHH(1)
With B1, the entries for the “relative value of the dissociation constant (KD with hTfR set to 1)” value in assay [1] and in assay [2] were 5.7 fold and 8.84 fold, respectively. Besides, the equilibrium dissociation constant (Kd) turned out to be 5.31 nM in assay [3], 0.932 nM in assay [4], 82.4 nM in assay [5] and 8.24 nM in assay [6].

B2: hTfR affinity peptide 3 (VHH)
VHH: B1 VHH with L20I, E60V, A61N, I68T, Y79D, I99T, A101P
notes: It says only that the purified product was obtained in the same manner as peptide 1; also called Clone 2; VHH(3)
In the case of B2, the figures for the “relative value of the dissociation constant (KD with hTfR set to 1)” value in assay [1] and in assay [2] were 1.31 fold and 3.95 fold, respectively. Moreover, the Kd in assay [3] is 5.75 nM; in assay [4] it was 4.4 nM; in assay [5], 17.4 nM.

By Kd is commonly meant the constant that tells how readily two partners part at equilibrium.

Source of the values: patent EP4653533A1 (JCR Pharmaceuticals Co., Ltd., dated 2025).
